Experimental data taken from patent EP0665886B1 (COLD SPRING HARBOR LABORATORY, dated 2003).

Target: T1, human cyclin D1 (human, UniProt P24385 1-295)
T1 construct: Endogenous 35 kDa protein in co-immunoprecipitations; also called p35^cyclin D1; p35
Experiment: anti-cyclin D1 immunoprecipitation

T1 sequence (P24385 whole entry): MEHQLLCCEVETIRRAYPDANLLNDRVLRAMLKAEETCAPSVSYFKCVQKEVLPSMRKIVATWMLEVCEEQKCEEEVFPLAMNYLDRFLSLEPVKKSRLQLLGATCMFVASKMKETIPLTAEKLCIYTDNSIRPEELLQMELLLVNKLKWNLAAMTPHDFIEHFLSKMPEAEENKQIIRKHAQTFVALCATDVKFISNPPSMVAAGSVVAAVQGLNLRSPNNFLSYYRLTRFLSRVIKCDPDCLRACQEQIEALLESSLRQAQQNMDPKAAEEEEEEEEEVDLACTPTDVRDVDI

Molecule | share of cyclin D1-associated protein lost in RIPA buffer (0.1% SDS) against NP40 (0.5%) buffer [%]
p21 (polypeptide of 21 kDa apparent molecular weight) | > 90
human CDK4 (enzyme, UniProt P11802 1-303, looked up, also called PSK-J3; p33^CDK4) MATSRYEPVAEIGVGAYGTVYKARDPHSGHFVALKSVRVPNGGGGGGGLPISTVREVALLRRLEAFEHPNVVRLMDVCATSRTDREIKVTLVFEHVDQDLRTYLDKAPPPGLPAETIKDLMRQFLRGLDFLHANCIVHRDLKPENILVTSGGTVKLADFGLARIYSYQMALTPVVVTLWYRAPEVLLQSTYATPVDMWSVGCIFAEMFRRKPLFCGNSEADQLGKIFDLIGLPPEDDWPRDVSLPRGAFPPRGPRPVQSVVPEMEESGAQLLLEMLTFNPHKRISAFRALQHSYLHKDEGNPE | > 90
